Assay results reported in US20250011397A1 (HOSPITAL FOR SICK CHILDREN, published 2025).
Substitutions are numbered along the chain they refer to. Several values for one entry are separate records, joined by “and”; a condition that tells them apart may be missing. Equal values may be shown once.

B1: MB 128 (other)
heavy: QVQLVQSGAEVKKPGASVKVSCKASGYTFTHYYMHWVRQAPGQGLEWMGIINPSSSSASYSQKFQGRVTMTRDTSTSTVYMELSSLRSEDTAVYYCARDGRYGSGSYPFDYWGQGTLVTVSSASTKGPSVFPLAPSSKSTSGGTAALGCLVKDYFPEPVTVSWNSGALTSGVHTFPAVLQSSGLYSLSSVVTVPSSSLGTQTYICNVNHKPSNTKVDKKVEPKSC
light: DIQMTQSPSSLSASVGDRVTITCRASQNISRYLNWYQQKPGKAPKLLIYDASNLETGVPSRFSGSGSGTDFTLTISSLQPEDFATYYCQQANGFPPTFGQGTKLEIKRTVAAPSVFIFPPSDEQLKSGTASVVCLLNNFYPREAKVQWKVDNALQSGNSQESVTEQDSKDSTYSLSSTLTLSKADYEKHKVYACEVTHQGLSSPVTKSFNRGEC
B2: MB 160 (other)
heavy: QVQLVQSGAEVKKPGASVKVSCKASGYTFTGHDMHWVRQAPGQGLEWMGIINPSGGSTSYAQKFQGRVTMTRDTSTSTVYMELSSLRSEDTAVYYCARANSLRYYYGMDVWGQGTMVTVSSASTKGPSVFPLAPSSKSTSGGTAALGCLVKDYFPEPVTVSWNSGALTSGVHTFPAVLQSSGLYSLSSVVTVPSSSLGTQTYICNVNHKPSNTKVDKKVEPKSC
light: DIQMTQSPSSLSASVGDRVTITCRASQSVSSWLAWYQQKPGKAPKLLIYAASSLQSGVPSRFSGSGSGTDFTLTISSLQPEDFATYYCQQGYTTPYTFGQGTKLEIKRTVAAPSVFIFPPSDEQLKSGTASVVCLLNNFYPREAKVQWKVDNALQSGNSQESVTEQDSKDSTYSLSSTLTLSKADYEKHKVYACEVTHQGLSSPVTKSFNRGEC
B3: MB 120 (other)
heavy: QVQLVQSGAEVKKPGASVKVSCKASGYTFTSYDINWVRQAPGQGLEWMGMIDPSGGSTSYAQKFQGRVTMTRDTSTSTVYMELSSLRSEDTAVYYCAKDFGGGTRYDYWYFDLWGRGTLVTVSSASTKGPSVFPLAPSSKSTSGGTAALGCLVKDYFPEPVTVSWNSGALTSGVHTFPAVLQSSGLYSLSSVVTVPSSSLGTQTYICNVNHKPSNTKVDKKVEPKSC
light: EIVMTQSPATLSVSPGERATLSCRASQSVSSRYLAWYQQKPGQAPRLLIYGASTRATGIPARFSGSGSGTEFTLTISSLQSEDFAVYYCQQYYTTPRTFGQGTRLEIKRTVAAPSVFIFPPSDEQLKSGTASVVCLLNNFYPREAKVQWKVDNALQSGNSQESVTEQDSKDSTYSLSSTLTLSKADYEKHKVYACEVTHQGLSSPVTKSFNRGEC
B4: MB 349 (other)
heavy: EVQLLESGGGLVQPGGSLRLSCAASGFTFSNYGMHWVRQAPGKGLEWVSGISSAGSITNYADSVKGRFTISRDNSKNTLYLQMNSLRAEDTAVYYCAGNHAGTTVTSEYFQHWGQGTLVTVSSASTKGPSVFPLAPSSKSTSGGTAALGCLVKDYFPEPVTVSWNSGALTSGVHTFPAVLQSSGLYSLSSVVTVPSSSLGTQTYICNVNHKPSNTKVDKKVEPKSC
light: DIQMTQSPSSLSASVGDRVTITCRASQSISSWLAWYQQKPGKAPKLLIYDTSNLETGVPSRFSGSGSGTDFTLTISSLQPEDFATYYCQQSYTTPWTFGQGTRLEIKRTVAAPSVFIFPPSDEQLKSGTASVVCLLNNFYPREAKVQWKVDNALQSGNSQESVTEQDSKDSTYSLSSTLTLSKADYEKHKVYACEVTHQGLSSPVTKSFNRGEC
B5: MB 108 (other)
heavy: QVQLVQSGAEVKKPGASVKVSCKASGYIFSRYAIHWVRQAPGQGLEWMGWMNPISGNTDYAPNFQGRVTMTRDTSTSTVYMELSSLRSEDTAVYYCAKDGSQLAYLVEYFQHWGQGTLVTVSSASTKGPSVFPLAPSSKSTSGGTAALGCLVKDYFPEPVTVSWNSGALTSGVHTFPAVLQSSGLYSLSSVVTVPSSSLGTQTYICNVNHKPSNTKVDKKVEPKSC
light: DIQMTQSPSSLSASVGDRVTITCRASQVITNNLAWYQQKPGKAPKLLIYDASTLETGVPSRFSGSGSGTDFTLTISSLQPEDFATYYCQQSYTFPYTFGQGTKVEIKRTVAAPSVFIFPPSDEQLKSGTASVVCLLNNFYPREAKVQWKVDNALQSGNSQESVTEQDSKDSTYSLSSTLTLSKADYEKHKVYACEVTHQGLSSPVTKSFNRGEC
B6: MB 158 (other)
heavy: QVQLVQSGAEVKKPGASVKVSCKASGYTFTGYYMHWVRQAPGQGLEWMGWINPLNGGTNFAPKFQGRVTMTRDTSTSTVYMELSSLRSEDTAVYYCARDPGGSYSNDAFDIWGQGTLVTVSSASTKGPSVFPLAPSSKSTSGGTAALGCLVKDYFPEPVTVSWNSGALTSGVHTFPAVLQSSGLYSLSSVVTVPSSSLGTQTYICNVNHKPSNTKVDKKVEPKSC
light: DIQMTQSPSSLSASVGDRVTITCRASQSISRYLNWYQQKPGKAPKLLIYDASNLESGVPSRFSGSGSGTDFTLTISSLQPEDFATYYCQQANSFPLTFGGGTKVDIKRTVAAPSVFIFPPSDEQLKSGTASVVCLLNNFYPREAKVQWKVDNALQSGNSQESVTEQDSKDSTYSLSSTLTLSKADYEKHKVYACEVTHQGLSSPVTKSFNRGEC
B7: MB 254 (other)
heavy: EVQLLESGGGLVQPGGSLRLSCAASGFTFSSSAMHWVRQAPGKGLEWVSAIGTGGDTYYADSVKGRFTISRDNSKNTLYLQMNSLRAEDTAVYYCAREGDGYNFYFDYWGQGTLVTVSSASTKGPSVFPLAPSSKSTSGGTAALGCLVKDYFPEPVTVSWNSGALTSGVHTFPAVLQSSGLYSLSSVVTVPSSSLGTQTYICNVNHKPSNTKVDKKVEPKSC
light: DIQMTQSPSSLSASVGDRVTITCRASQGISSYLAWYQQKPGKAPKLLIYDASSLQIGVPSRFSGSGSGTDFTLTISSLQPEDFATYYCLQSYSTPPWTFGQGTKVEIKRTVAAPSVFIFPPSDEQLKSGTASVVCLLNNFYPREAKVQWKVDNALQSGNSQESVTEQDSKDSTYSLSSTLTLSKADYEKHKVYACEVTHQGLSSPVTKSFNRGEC
B8: MB 56 (other)
heavy: QVQLVQSGAEVKKPGASVKVSCKASGYTFTSYGISWVRQAPGQGLEWMGWISAYNGNTNYAQKLQGRVTMTRDTSTSTVYMELSSLRSEDTAVYYCARDIGPIDYWGQGTLVTVSSASTKGPSVFPLAPSSKSTSGGTAALGCLVKDYFPEPVTVSWNSGALTSGVHTFPAVLQSSGLYSLSSVVTVPSSSLGTQTYICNVNHKPSNTKVDKKVEPKSC
light: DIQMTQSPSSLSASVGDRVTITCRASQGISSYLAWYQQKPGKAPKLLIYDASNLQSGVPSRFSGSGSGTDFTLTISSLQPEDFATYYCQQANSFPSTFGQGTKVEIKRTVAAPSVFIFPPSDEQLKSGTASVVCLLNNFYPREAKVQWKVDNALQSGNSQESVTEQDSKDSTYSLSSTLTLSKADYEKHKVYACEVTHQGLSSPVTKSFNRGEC
B9: MB 192 (other)
heavy: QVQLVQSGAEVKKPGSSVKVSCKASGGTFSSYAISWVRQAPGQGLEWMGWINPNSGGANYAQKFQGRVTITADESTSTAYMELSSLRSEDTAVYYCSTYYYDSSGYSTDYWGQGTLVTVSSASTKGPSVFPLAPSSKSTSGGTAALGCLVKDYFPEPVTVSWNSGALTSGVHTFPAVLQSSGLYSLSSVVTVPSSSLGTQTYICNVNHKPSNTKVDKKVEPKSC
light: DIVMTQSPLSLPVTPGEPASISCRSSQSLLHSNGYNYLDWYLQKPGQSPQLLIYAASSLQSGVPDRFSGSGSGTDFTLKISRVEAEDVGVYYCMQALQTPYTFGQGTKLEIKRTVAAPSVFIFPPSDEQLKSGTASVVCLLNNFYPREAKVQWKVDNALQSGNSQESVTEQDSKDSTYSLSSTLTLSKADYEKHKVYACEVTHQGLSSPVTKSFNRGEC
B10: MB 180 (other)
heavy: QVQLVQSGAEVKKPGSSVKVSCKASGYTFTSYAMHWVRQAPGQGLEWMGRISPRSGGTKYAQRFQGRVTITADESTSTAYMELSSLRSEDTAVYYCAREAVAGTHPQAGDFDLWGRGTLVTVSSASTKGPSVFPLAPSSKSTSGGTAALGCLVKDYFPEPVTVSWNSGALTSGVHTFPAVLQSSGLYSLSSVVTVPSSSLGTQTYICNVNHKPSNTKVDKKVEPKSC
light: B9 light with M94Q, A96Y, L97Y, Q98S, T99S
B11: mAb 128 (antibody, V domains shown)
VH: QVQLVQSGAEVKKPGASVKVSCKASGYTFTHYYMHWVRQAPGQGLEWMGIINPSSSSASYSQKFQGRVTMTRDTSTSTVYMELSSLRSEDTAVYYCARDGRYGSGSYPFDYWGQGTLVTVSS
VL: DIQMTQSPSSLSASVGDRVTITCRASQNISRYLNWYQQKPGKAPKLLIYDASNLETGVPSRFSGSGSGTDFTLTISSLQPEDFATYYCQQANGFPPTFGQGTKLEIKR
B12: mAb 56 (antibody, V domains shown)
VH: QVQLVQSGAEVKKPGASVKVSCKASGYTFTSYGISWVRQAPGQGLEWMGWISAYNGNTNYAQKLQGRVTMTRDTSTSTVYMELSSLRSEDTAVYYCARDIGPIDYWGQGTLVTVSS
VL: B11 VL with N28G, R31S, N34A, E55Q, T56S, G93S, P96S, L104V
notes: also called IgG 56
B13: MB 178 (other)
heavy: QVQLVQSGAEVKKPGASVKVSCKASGYTFTDYHMHWVRQAPGQGLEWMGWINPNSGGTNYAQKFQGRVTMTRDTSTSTVYMELSSLRSEDTAVYYCARDISSWYEITKFDPWGQGTLVTVSSASTKGPSVFPLAPSSKSTSGGTAALGCLVKDYFPEPVTVSWNSGALTSGVHTFPAVLQSSGLYSLSSVVTVPSSSLGTQTYICNVNHKPSNTKVDKKVEPKSC
light: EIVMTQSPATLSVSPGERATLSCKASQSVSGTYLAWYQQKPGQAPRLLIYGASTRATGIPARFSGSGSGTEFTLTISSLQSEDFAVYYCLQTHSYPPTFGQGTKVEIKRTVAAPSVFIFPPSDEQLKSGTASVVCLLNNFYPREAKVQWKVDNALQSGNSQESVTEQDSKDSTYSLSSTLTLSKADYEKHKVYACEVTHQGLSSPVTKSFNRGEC

What was measured:
[1] = target: T1, SARS-CoV-2 Spike on HIV-based pseudotyped virus (Spike plasmid BEI NR52310) (SARS-CoV-2, UniProt P0DTC2 14-1273); experiment: cell-based or functional assay
[2] = target: T1, SARS-CoV-2 Spike on HIV-based …; experiment: cell-based or functional assay; remark: listed apart in the source

| Binder | IC50 SARS-CoV2 PsV (µg/mL), MB [1] | Median IC50 (PsV neutralization) [2] | IC50 SARS-CoV2 PsV (µg/mL), IgG [1] |
| --- | --- | --- | --- |
| B1 | 3.5 µg/mL | 1.5 nM and 3.5 µg/mL | – |
| B2 | 0.22 µg/mL | 0.22 µg/mL and 96 pM | – |
| B3 | 7.2 µg/mL | 7.2 µg/mL and 3.1 nM | – |
| B4 | > 50 µg/mL | > 50 µg/mL and > 0.33 µM | – |
| B5 | 0.37 µg/mL | 0.37 µg/mL and 161 pM | – |
| B6 | 0.1 µg/mL | 0.1 µg/mL and 43 pM | – |
| B7 | 9.3 µg/mL | 9.3 µg/mL and 4 nM | – |
| B8 | > 50 µg/mL | > 50 µg/mL and > 0.33 µM | – |
| B9 | 0.79 µg/mL | 0.79 µg/mL and 343 pM | – |
| B10 | 0.89 µg/mL | 0.89 µg/mL and 387 pM | – |
| B11 | – | > 50 µg/mL and > 333 nM | > 50 µg/mL |
| B12 | – | > 50 µg/mL and > 333 nM | > 50 µg/mL |
| B13 | 1.7 µg/mL | 1.7 µg/mL and 0.74 nM | – |
